From the supplement of paper PMC10567573 come the findings set out here.

± gives the standard deviation.

The series is described as follows: protein stability index of a GFP-peptide fusion (GPS, HEK-293T) (PSI 1-6); higher = more stable. To be noted: c terminus: a fixed tail appended.
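Note: 24-mer peptide tiles fused after GFP, lentivirally expressed, FACS-sorted into six equal bins by GFP/DsRed ratio, decoded by Illumina sequencing, PSI is the read-weighted mean bin number.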

LMILRRVVNESTVCLMGHERRQTL [TENT5C]: the protein stability index turned out to be 2.33 ± 0.18 (treatment: DMSO) and 2.34 ± 0.32 (treatment: MLN4924 1 uM, 8 h).
For DTYDSVYLHPNSYSCACLASGSVL [HDAC6], in that order: 2.21 ± 0.15 and 2.3 ± 0.25.
Consider ELPNIKREISETEAKALLKERQKK [TFE3], for which the protein stability index came out at 3.26 ± 0.7 (treatment: DMSO) and 4.19 ± 0.57 (treatment: MLN4924 1 uM, 8 h).
For GRAVDQDKVLRFAQQIRLHHFNSS [MYORG], in that order: 2.51 ± 0.27 and 2.75 ± 0.34.
The matching figures for SYSSCGDFHYCDREHVCRKDQRNP [RBMY1A1]: 4.06 ± 0.41 and 4.09 ± 0.1.
As for LSNKNGKNVELKFVDSIRRQFEFS [TENT5C], the protein stability index was 2.56 ± 0.24 (treatment: DMSO) and 2.48 ± 0.42 (treatment: MLN4924 1 uM, 8 h).
For DYIRRYLPVLRGFPAKYIYDPWNA [CRY1], in that order: 2.53 ± 0.5 and 2.16 ± 0.2.
The matching figures for LEWHDSLFQILSERQDMYQCLVEG [ZNF511]: 2.42 ± 0.24 and 2.43 ± 0.29.
The matching figures for VLTAVDGGTPARSGTTLISVIVLD [PCDHGC5]: 2.34 ± 0.47 and 2.26 ± 0.22.
For the sequence EPTEVEEVVPALEPTETLLSEKEI [BCL2L13], the protein stability index was found to be 5.5 ± 0.35 (treatment: DMSO) and 5.71 ± 0.12 (treatment: MLN4924 1 uM, 8 h).
For MEMTRPTPPHLTSAMAENILAAAC [NOL4L], in that order: 3.38 ± 0.3 and 3.18 ± 0.34.
For DDIEEKTPISNEVEMESEEQIAER [KMT2E], in that order: 5.8 ± 0.16 and 5.66 ± 0.26.
RSSEFYRVTTEQYQKAAEEVEAKF [CHCHD3]: the protein stability index (treatment: DMSO) came to 4.88 ± 0.32 and the protein stability index (treatment: MLN4924 1 uM, 8 h) was found to be 4.78 ± 0.074.
As to YSFYLFHPLAYGMVGPLAQDPQSP [POMT2], the protein stability index (treatment: DMSO) was determined as 2.45 ± 0.7 and the protein stability index (treatment: MLN4924 1 uM, 8 h) turned out to be 2.67 ± 0.43.
For AASISDGDCDAREEKQRELARKGS [FAM219A], in that order: 5.54 ± 0.2 and 5.52 ± 0.2.
Regarding APRVRTAFTMEQVRTLEGVFQHHQ [VENTX], the protein stability index runs as follows: (treatment: DMSO) 3.33 ± 0.22; (treatment: MLN4924 1 uM, 8 h) 3.26 ± 0.22.
With CPIIRIPNRFLRGHRPPPARSGHR [KLHDC10], the protein stability index (treatment: DMSO) worked out at 2.68 ± 0.69 and the protein stability index (treatment: MLN4924 1 uM, 8 h) was found to be 3.32 ± 0.85.
For MEAVLNELVSVEDLLKFEKKFQSE [FIS1], in that order: 3.69 ± 0.25 and 3.65 ± 0.27.
Take RGCLHSHGLQEGKDLFTQRQNSAP [CDC25A]: the protein stability index by setting is: (treatment: DMSO) 3.72 ± 0.36; (treatment: MLN4924 1 uM, 8 h) 3.62 ± 0.33.
NQLTHTDLKPENILFVNSEFETLY [CLK3]: the protein stability index by setting is: (treatment: DMSO) 3.29 ± 0.35; (treatment: MLN4924 1 uM, 8 h) 3.27 ± 0.18.
In the case of VTSQATLLTITKAHSNAISNCCFT [WDR88], the protein stability index runs as follows: (treatment: DMSO) 2.3 ± 0.55; (treatment: MLN4924 1 uM, 8 h) 2.18 ± 0.28.
Regarding PVGSCCSSPAGLSREYKLVMLGAG [RIT1], the protein stability index is, setting by setting: (treatment: DMSO) 2.54 ± 0.44; (treatment: MLN4924 1 uM, 8 h) 2.24 ± 0.35.
Regarding LPGNEEFQVVKDAVLDCLLDFLPK [TENT5D], the protein stability index is, setting by setting: (treatment: DMSO) 2.32 ± 0.39; (treatment: MLN4924 1 uM, 8 h) 2.4 ± 0.21.
Take EGAQRDRFPGRKQPGVHEEPVLKK [C22orf31]: the protein stability index runs as follows: (treatment: DMSO) 5.15 ± 0.3; (treatment: MLN4924 1 uM, 8 h) 5.17 ± 0.31.
For KHAAFVTPDQKYSMDNTPHTPTPF [MYBL2], in that order: 3.84 ± 0.25 and 3.84 ± 0.35.
The matching figures for SQITDSEHNSSLVSQQTGSPGKQP [ZNF8]: 5.33 ± 0.16 and 5.26 ± 0.23.
As for HMLNQVESKVKDILSKVQKNHVGK [FAM98B], the protein stability index runs as follows: (treatment: DMSO) 2.55 ± 0.51; (treatment: MLN4924 1 uM, 8 h) 2.36 ± 0.32.
As for AAARAAQRRRRVENAGGSPSPEPA [RSAD1], the protein stability index reads like this: (treatment: DMSO) 5.25 ± 0.087; (treatment: MLN4924 1 uM, 8 h) 5.12 ± 0.44.
For AWGFPENATAPRSPSHSPEHRRTA [ELOA2], in that order: 5 ± 0.15 and 4.87 ± 0.16.
For ARGSIVATYIFIFIGETLLSMNWA [SPNS1], in that order: 3.4 ± 0.55 and 2.88 ± 0.55.
The matching figures for LCGAGSEPSIAPTSCAGNLPSRPP [RSPH3]: 4.36 ± 0.36 and 4.28 ± 0.21.
As for IVLNKINQILMEKYLKLQDTCRTQ [INTS3], the protein stability index worked out at 3.59 ± 0.83 (treatment: DMSO) and 3.24 ± 0.61 (treatment: MLN4924 1 uM, 8 h).
Consider WFQDPTRFTGTMDAFVKIVRHEGT [SLC25A39], for which the protein stability index turned out to be 2.17 ± 0.25 (treatment: DMSO) and 2.23 ± 0.37 (treatment: MLN4924 1 uM, 8 h).
LGGEDGEKELISMECYDIYSKTWT [GAN]: the protein stability index by setting is: (treatment: DMSO) 3.31 ± 0.45; (treatment: MLN4924 1 uM, 8 h) 3.19 ± 0.24.
For LEQFVAILPKELQTWVRDHHPENG [ZNF24], in that order: 3.2 ± 0.1 and 3.23 ± 0.21.
As for GATCMFVASKMKETIPLTAEKLCI [CCND1], the protein stability index was determined as 2.34 ± 0.34 (treatment: DMSO) and 1.99 ± 0.41 (treatment: MLN4924 1 uM, 8 h).
